Laboratory results reported in publication PMC6469041 (BMC Microbiology, 2019).

Legend:
[1] = molecular target: T1, PhnCDE (strain RS07, phn+3Δ) (Escherichia coli, UniProt A0A140NFA3+P16682); test: competition of […] uptake by intact cells; format: cell-based; details: 10 µM 32Pi, 4 mM AePn added 50 s later; strain used for this test not named
T1 construct: gene phnD; native chromosomal ABC transporter in intact cells of RS07 (MG1655 ΔpitA ΔugpBAEC ΔpstSCAB-phoU phnE+); phnE is the functional BL21 allele without the 8 bp insertion of K-12; phnC and phnD may be of K-12 or co-transduced from BL21
T1 sequence (P16682 27-338): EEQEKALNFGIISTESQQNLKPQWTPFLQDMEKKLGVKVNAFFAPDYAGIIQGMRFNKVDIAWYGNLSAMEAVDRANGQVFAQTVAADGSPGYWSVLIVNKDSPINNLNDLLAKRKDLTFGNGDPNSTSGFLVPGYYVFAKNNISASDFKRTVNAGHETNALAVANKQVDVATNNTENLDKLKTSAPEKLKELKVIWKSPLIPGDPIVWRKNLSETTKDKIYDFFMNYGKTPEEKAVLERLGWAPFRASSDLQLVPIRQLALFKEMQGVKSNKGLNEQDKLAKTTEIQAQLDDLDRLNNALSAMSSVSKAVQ
T1 sequence (A0A140NFA3 1-259): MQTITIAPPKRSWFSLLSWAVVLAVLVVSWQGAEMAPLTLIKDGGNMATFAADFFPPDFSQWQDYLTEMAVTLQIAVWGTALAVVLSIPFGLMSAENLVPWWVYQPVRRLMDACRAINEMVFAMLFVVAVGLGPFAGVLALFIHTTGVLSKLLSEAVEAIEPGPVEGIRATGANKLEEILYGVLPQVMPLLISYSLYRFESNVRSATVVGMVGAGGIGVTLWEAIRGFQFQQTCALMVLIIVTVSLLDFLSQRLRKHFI
T1 sequence (P16677 1-262 partner): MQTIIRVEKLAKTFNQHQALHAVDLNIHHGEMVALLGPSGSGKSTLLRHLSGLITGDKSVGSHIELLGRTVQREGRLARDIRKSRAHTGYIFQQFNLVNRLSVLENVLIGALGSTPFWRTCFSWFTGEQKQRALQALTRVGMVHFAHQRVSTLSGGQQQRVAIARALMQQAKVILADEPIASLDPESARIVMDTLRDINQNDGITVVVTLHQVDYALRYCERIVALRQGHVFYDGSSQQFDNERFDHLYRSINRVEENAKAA

[2] = substrate: O=P(O)(O)O; test: cells, lysate or membranes

For `NCCP(=O)(O)O` [AePn, aminoethylphosphonate], the “inhibition of Pi uptake at 4 mM” value [1] was “addition of AePn strongly inhibited Pi uptake when compared to the control”.

B1: PitA (strain RS04, pitA+3Δ) (Escherichia coli K-12) (protein)
chain: MLHLFAGLDLHTGLLLLLALAFVLFYEAINGFHDTANAVATVIYTRAMRSQLAVVMAAVFNFLGVLLGGLSVAYAIVHMLPTDLLLNMGSSHGLAMVFSMLLAAIIWNLGTWYFGLPASSSHTLIGAIIGIGLTNALMTGTSVVDALNIPKVLSIFGSLIVSPIVGLVFAGGLIFLLRRYWSGTKKRARIHLTPAEREKKDGKKKPPFWTRIALILSAIGVAFSHGANDGQKGIGLVMLVLIGVAPAGFVVNMNATGYEITRTRDAINNVEAYFEQHPALLKQATGADQLVPAPEAGATQPAEFHCHPSNTINALNRLKGMLTTDVESYDKLSLDQRSQMRRIMLCVSDTIDKVVKMPGVSADDQRLLKKLKSDMLSTIEYAPVWIIMAVALALGIGTMIGWRRVATTIGEKIGKKGMTYAQGMSAQMTAAVSIGLASYTGMPVSTTHVLSSSVAGTMVVDGGGLQRKTVTSILMAWVFTLPAAVLLSGGLYWLSLQFL
For B1, the Km ([2]; 15-50 µM KH2PO4, TG medium (Tris T-salts, glucose) pH 7.5, labelled compound) was 25.99 µM.

B2: PhnCDE (strain RS07, phn+3Δ) (Escherichia coli BL21(DE3)) (protein)
chain 1: T1 sequence (P16682 27-338)
chain 2: T1 sequence (A0A140NFA3 1-259)
With B2 the Km ([2]; 5-20 µM KH2PO4, TG medium (Tris T-salts, glucose) pH 7.5, labelled compound) was 19.46 µM.
